Target: human hCTLA4-RFP protein on 293 cells (human) (UniProt P16410)
Assay: flow cytometry of cell conjugates; 293-hCTLA4-RFP cells with 100 nM antibody, then five times as many 293-B7-1-GFP cells (B7-1 is the ligand tested for blocking); lower right quadrant (RFP+GFP-) 6.13

human hCTLA4-RFP protein on 293 cells (human), sequence (P16410 36-223): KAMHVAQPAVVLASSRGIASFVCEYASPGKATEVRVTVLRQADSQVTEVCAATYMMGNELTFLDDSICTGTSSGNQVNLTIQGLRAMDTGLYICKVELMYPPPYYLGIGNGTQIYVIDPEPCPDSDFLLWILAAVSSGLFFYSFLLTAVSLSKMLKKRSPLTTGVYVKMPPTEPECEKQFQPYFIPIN

% RFP+GFP+ events (upper right quadrant): 26.5%
Substance: hIgG1 (antibody)

— patent US20220251207A1
